Laboratory results: publication doi:10.1101/2020.08.17.253781

Molecular target: GST-LOV2GIV (L) (Avena sativa | not stated)
Assay: pull-down

Chain of His-Gαi3 (P08753 whole entry): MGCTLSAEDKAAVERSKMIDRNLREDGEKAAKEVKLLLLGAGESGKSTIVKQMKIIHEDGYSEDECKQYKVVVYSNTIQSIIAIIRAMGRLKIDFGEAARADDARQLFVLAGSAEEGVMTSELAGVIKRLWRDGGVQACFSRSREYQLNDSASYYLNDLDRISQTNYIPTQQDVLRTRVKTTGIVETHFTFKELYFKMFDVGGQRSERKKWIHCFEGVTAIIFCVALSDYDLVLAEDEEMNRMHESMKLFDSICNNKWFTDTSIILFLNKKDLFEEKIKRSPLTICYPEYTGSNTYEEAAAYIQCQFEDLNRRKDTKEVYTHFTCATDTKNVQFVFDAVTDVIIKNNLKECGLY

“His-Gαi3 (from UniProt P08753 1-354) (natural protein)” gave a fold binding, lit over dark conformation of LOV2GIV of 3 fold.
